Assay results as given in paper PMC5650531.

Biological target: His6-CCCP-1 (C. elegans CCCP-1, full length) (C. elegans)
Experiment: SEC-MALS

stoichiometry N: 2
Substance: His6-CCCP-1 (C. elegans CCCP-1, full length) (natural protein)
